{
  "source": "patent US20240076386A1",
  "about": "(Pfizer, published 2024)",
  "key": {"[1]": {"target": "T1, human E-selectin, cell-surface expressed (human, UniProt P16581 22-610)", "T1 sequence": "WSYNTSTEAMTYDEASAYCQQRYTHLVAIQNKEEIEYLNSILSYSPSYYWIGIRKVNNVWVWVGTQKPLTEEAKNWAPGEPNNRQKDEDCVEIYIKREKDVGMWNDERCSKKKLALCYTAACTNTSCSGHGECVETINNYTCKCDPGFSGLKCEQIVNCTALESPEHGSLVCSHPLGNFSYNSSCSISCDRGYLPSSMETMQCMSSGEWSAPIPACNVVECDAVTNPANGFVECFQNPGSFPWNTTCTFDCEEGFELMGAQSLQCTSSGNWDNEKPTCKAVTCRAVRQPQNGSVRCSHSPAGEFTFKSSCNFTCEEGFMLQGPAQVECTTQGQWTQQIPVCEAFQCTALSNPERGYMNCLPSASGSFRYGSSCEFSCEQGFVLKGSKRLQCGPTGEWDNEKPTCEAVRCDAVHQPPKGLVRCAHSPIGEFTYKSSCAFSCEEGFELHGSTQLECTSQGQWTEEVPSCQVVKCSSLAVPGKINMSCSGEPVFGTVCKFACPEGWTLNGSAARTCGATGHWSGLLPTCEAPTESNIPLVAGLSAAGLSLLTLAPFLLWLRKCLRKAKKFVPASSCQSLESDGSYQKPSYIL", "test": "cell-based or functional assay"}, "[2]": {"target": "T2, cynomolgus monkey E-selectin, cell-surface expressed (cynomolgus monkey, UniProt P16581 22-610 (human entry))", "T2 chain": "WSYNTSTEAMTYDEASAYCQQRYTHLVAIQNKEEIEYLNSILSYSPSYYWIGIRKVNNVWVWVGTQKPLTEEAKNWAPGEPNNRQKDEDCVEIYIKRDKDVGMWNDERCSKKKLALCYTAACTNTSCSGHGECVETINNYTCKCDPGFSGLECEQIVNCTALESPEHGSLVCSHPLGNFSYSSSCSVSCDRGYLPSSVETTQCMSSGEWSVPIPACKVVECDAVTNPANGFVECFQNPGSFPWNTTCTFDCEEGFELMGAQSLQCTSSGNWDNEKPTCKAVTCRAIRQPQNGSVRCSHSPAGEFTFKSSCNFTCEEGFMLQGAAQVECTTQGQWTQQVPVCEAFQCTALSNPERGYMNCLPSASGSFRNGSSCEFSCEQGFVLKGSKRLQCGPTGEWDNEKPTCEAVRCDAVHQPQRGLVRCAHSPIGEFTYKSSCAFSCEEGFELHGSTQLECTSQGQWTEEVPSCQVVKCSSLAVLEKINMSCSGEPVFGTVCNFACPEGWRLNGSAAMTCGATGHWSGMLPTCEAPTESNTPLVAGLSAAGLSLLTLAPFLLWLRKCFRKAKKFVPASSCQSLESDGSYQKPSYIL", "test": "cell-based or functional assay"}, "[3]": {"target": "T3, recombinant histidine-tagged human E-selectin (Sino Biologicals; 13025-H08H) (human, UniProt P16581 22-556)", "T3 sequence (looked up)": "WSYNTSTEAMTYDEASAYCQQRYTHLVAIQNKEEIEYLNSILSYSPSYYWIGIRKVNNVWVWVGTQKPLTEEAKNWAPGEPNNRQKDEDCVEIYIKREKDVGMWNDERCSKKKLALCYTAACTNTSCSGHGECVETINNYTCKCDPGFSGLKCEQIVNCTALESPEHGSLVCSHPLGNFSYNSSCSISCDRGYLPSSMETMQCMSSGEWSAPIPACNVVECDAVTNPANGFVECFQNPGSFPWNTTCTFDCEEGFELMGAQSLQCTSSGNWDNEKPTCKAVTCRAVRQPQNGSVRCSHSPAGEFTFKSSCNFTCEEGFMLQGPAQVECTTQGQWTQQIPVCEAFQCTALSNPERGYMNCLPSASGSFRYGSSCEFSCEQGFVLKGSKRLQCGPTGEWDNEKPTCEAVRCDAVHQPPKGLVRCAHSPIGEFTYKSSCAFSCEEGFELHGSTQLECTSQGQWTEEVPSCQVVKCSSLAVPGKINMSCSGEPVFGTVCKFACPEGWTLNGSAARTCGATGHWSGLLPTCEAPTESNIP", "test": "cell-based or functional assay"}, "[4]": {"target": "T1, human E-selectin, cell-surface expressed", "test": "competition ELISA on CHO cells vs sialyl Lewis ligand, further assays", "experimental": "(§1) CHO cells expressing E-selectin were seeded at 12,500 cells per well into a 96 well tissue culture plate and incubated at 37° C., 5% CO₂ for 48 hours to form a confluent monolayer. Plates were subsequently washed twice with 200 μL of calcium magnesium free PBS. Anti-E-selectin antibodies or an IgG1 isotype control (IgG control) were added to the assay in the presence of a small synthetic conjugate of biotinylated, sialyl Lewis A polyacrylamide (Carbosynth LLC, OS45446) or sialyl Lewis X polyacrylamide (Glycotech, 01-045) with streptavidin/horseradish peroxidase (100 μL total) and incubated at 37° C., 5% CO₂ for 2 hours. Plates were then washed twice with 200 μL of calcium and magnesium free PBS. Following the incubation, the cells were washed twice with 200 μL of wash buffer containing 2 mM of calcium chloride (50 mM TRIS [trisaminomethane], 150 mM sodium chloride; 0.05% polysorbate 20, pH 7.4; 2 mM calcium chloride). Signal was developed by adding 100 μL of 1-Step Ultra TMB substrate (Thermo Scientific, 34028) and incubating for 30 minutes at room temperature. Reactions were stopped using 2 M of sulfuric acid and absorbance was read at 450 nm (Spectramax M5e). Data were analyzed and graphed using GraphPad Prism software (Version 8.0.2)."}, "[5]": {"target": "T2, cynomolgus monkey E-selectin, …", "test": "competition ELISA on CHO cells vs sialyl Lewis ligand, further assays", "experimental": "as §1"}},
  "data": [
    {"binder": "optimized anti-E-selectin antibody 1444 (antibody, human IgG1, kappa, V domains shown, effector-null human IgG1, kappa) VH: EVQLVESGGGLVQPGGSLRLSCAASGYAIRSAYMHWVRQAPGKGLEWVARIDPANGNTIYVDSVTGRFTISADNAKNSAYLQMNSLRAEDTAVYYCAMDLYSTSEYWGQGTLVTVSS VL: DIQMTQSPSSLSASVGDRVTITCKTSQNIERYLNWYQQKPGKAPKLLIYAASSLQSGVPSRFSGSGSGTDFTLTISSLQPEDFATYFCLQDNAWPLTFGQGTKVEIKR", "values": [
      {"measurement": "HL-60 adhesion under physiological flow to human CHO-E-selectin cells, IC50", "setting": "[1]", "result": 4.41, "unit": "nM"},
      {"measurement": "HL-60 adhesion under physiological flow to cells expressing cynomolgus monkey E-selectin, IC50", "setting": "[2]", "result": 4.34, "unit": "nM"},
      {"measurement": "HL-60 cellular adhesion under physiological flow to purified soluble human E-selectin protein, IC50", "setting": "[3]", "result": 15.3, "unit": "nM"},
      {"measurement": "adhesion of SCD patient blood cells under physiological flow to recombinant E-selectin, IC50 (one donor)", "setting": "[3]", "result": 6.17, "unit": "nM"},
      {"measurement": "adhesion of SCD patient blood cells under physiological flow to recombinant E-selectin, IC50 (other donor)", "setting": "[3]", "result": 18.7, "unit": "nM"},
      {"measurement": "IC50", "setting": "[4]", "result": 2.33, "unit": "nM"},
      {"measurement": "IC50", "setting": "[5]", "result": 1.49, "unit": "nM"}
    ]}
  ]
}
